B1: Laforin (Homo sapiens), O95278 (parent)
chain: MRFRFGVVVPPAVAGARPELLVVGSRPELGRWEPRGAVRLRPAGTAAGDGALALQEPGLWLGEVELAAEEAAQDGAEPGRVDTFWYKFLKREPGGELSWEGNGPHHDRCCTYNENNLVDGVYCLPIGHWIEATGHTNEMKHTTDFYFNIAGHQAMHYSRILPNIWLGSCPRQVEHVTIKLKHELGITAVMNFQTEWDIVQNSSGCNRYPEPMTPDTMIKLYREEGLAYIWMPTPDMSTEGRVQMLPQAVCLLHALLEKGHIVYVHCNAGVGRSTAAVCGWLQYVMGWNLRKVQYFLMAKRPAVYIDEEALARAQEDFFQKFGKVRSSVCSL
partner: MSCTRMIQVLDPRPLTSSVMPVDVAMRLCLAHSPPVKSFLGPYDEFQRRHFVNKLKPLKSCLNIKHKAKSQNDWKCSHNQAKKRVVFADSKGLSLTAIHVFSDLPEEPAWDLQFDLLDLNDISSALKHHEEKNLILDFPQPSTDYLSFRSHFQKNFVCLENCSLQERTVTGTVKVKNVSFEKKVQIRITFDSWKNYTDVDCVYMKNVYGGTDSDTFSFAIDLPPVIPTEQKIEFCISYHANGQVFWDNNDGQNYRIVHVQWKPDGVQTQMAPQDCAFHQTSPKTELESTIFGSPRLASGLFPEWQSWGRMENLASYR
B2: Protein phosphatase 1 regulatory subunit 3C (Homo sapiens), Q9UQK1 (parent)
chain: B1 partner
partner: B1 chain

Variants of: B1
Conditions: with ppr3c_human PPP1R3C

Variant | effect of a mutation on the interaction
MRFRFGVVVPPAVAGARPELLVVGSRPELGRWEPRGAVRLRPAGTAAGDGALALQEPGLWLGEVELAAEEAAQDGAEPGRVDTFWYKFLKREPGGELSWEGNGPHHDRCCTYNENNLVDGVYCLPIGHWIEATGHTNEMKHTTDFYFNIAGHQAMHYSRILPNIWLGSCPRQVEHVTIKLKHELGITAVMNFQTEWDIVQNSSGCNRYPEPMTPDTMIKLYREEGLAYIWMPTPDMSTESRVQMLPQAVCLLHALLEKGHIVYVHCNAGVGRSTAAVCGWLQYVMGWNLRKVQYFLMAKRPAVYIDEEALARAQEDFFQKFGKVRSSVCSL [G240S] | decreasing interaction
MRFRFGVVVPPAVAGARPELLVVGSRPELGRWEPRGAVRLRPAGTAAGDGALALQEPGLWLGEVELAAEEAAQDGAEPGRVDTFWYKFLKREPGGELSWEGNGPHHDRCCTYNENNLVDGVYCLPIGHWIEATGHTNEMKHTTDFYFNIAGHQAMHYSRILPNIWLGSCPRQVEHVTIKLKHELGITAVMNFQIEWDIVQNSSGCNRYPEPMTPDTMIKLYREEGLAYIWMPTPDMSTEGRVQMLPQAVCLLHALLEKGHIVYVHCNAGVGRSTAAVCGWLQYVMGWNLRKVQYFLMAKRPAVYIDEEALARAQEDFFQKFGKVRSSVCSL [T194I] | disrupting interaction
MRFRFGVVVPPAVAGARPELLVVGSRPELGRWEPRGAVRLRPAGTAAGDGALALQEPGLWLGEVELAAEEAAQDGAEPGRVDTFWYKFLKREPGGELSWEGNGPHHDRCCTYNENNLVDGVYCLPIGHWIEATGHTNEMKHTTDFYFNIAGHQAMHYSRILPNIWLGSCPRQVEHVTIKLKHELGITAVMNFQTEWDIVQNSSGCNRYPEPMTPDTMIKLYREEGLAYIWMPTPDMSTEGRVQMLPQAVCLLHALLEKGHIVYVHCNAGVGRSTAAVCGWLQYVMGWNLRKVLYFLMAKRPAVYIDEEALARAQEDFFQKFGKVRSSVCSL [Q293L] | disrupting interaction
MRFRFGVVVPPAVAGARPELLVVGSRPELGRWEPRGAVRLRPAGTAAGDGALALQEPGLWLGEVELAAEEAAQDGAEPGRVDTFWYKFLKREPGGELSWEGNGPHHDCCCTYNENNLVDGVYCLPIGHWIEATGHTNEMKHTTDFYFNIAGHQAMHYSRILPNIWLGSCPRQVEHVTIKLKHELGITAVMNFQTEWDIVQNSSGCNRYPEPMTPDTMIKLYREEGLAYIWMPTPDMSTEGRVQMLPQAVCLLHALLEKGHIVYVHCNAGVGRSTAAVCGWLQYVMGWNLRKVQYFLMAKRPAVYIDEEALARAQEDFFQKFGKVRSSVCSL [R108C] | disrupting interaction
MRFRFGVVVPPAVAGARPELLVVGSRPELGRWEPRGAVRLRPAGTAAGDGALALQEPGLWLGEVELAAEEAAQDGAEPGRVDTFWYKFLKREPGGELSWEGNGPHHDRCCTYNENNLVDGVYCLPIGHWIEATGHTNEMKHTTDFYFNIAGHQAMHYSRILPNIWLGSCPRQVEHVTIKLKHELGITAVMNFQTEWDIVQNSSGCNRYPEPMTPDTMIKLYREEGLAYIWMPTPDMSTEGRVQMLPQAVCLLHALLEKGHIVYVHCNAGVGRSTAAVCGWLQYVMGWNLRKVQNFLMAKRPAVYIDEEALARAQEDFFQKFGKVRSSVCSL [Y294N] | disrupting interaction
MRFRFGVVVPPAVAGARPELLVVGSRPELGRWEPRGAVRLRPAGTAAGDGALALQEPGLWLGEVELAAEEAAQDGAEPGRVDTFWYKFLKREPGGELSWEGNGPHHDRCCTYNENNLVDGVYCLPIGHWIEATGHTNEMKHTTDFYFNIAGHQAMHYSRILPNIWLGSCPRQVEHVTIKLKHELGITAVMNFQTEWDIVQNSSGCNRYPEPMTPDTMIKLYREEGLAYIWMPTPDMSTEGRVQMLPQAVCLLHALLEKGHIVYVHCNAGVGRSTAAVCSWLQYVMGWNLRKVQYFLMAKRPAVYIDEEALARAQEDFFQKFGKVRSSVCSL [G279S] | decreasing interaction
MRFRFGVVVPPAVAGARPELLVVGSRPELGRWEPRGAVRLRPAGTAAGDGALALQEPGLWLGEVELAAEEAAQDGAEPGRVDTFWYKFLKREPGGELSWEGNGPHHDRCCTYNENNLVDGVYCLPIGHWIEATGHTNEMKHTTDFYFNIAGHQAMHYSRILPNIWLGSCPRQVEHVTIKLKHELGITAVMNFQTEWDIVQNSSGCNRYPEPMTPDTMIKLYREEGLAYIWMPTPDMSTEGRVQMLPQAVCLLHALLEKGHIVYVHSNAGVGRSTAAVCGWLQYVMGWNLRKVQYFLMAKRPAVYIDEEALARAQEDFFQKFGKVRSSVCSL [C266S] | increasing interaction
MRFRFGVVVPPAVAGARPELLVVGSRPELGRGEPRGAVRLRPAGTAAGDGALALQEPGLWLGEVELAAEEAAQDGAEPGRVDTFWYKFLKREPGGELSWEGNGPHHDRCCTYNENNLVDGVYCLPIGHWIEATGHTNEMKHTTDFYFNIAGHQAMHYSRILPNIWLGSCPRQVEHVTIKLKHELGITAVMNFQTEWDIVQNSSGCNRYPEPMTPDTMIKLYREEGLAYIWMPTPDMSTEGRVQMLPQAVCLLHALLEKGHIVYVHCNAGVGRSTAAVCGWLQYVMGWNLRKVQYFLMAKRPAVYIDEEALARAQEDFFQKFGKVRSSVCSL [W32G] | disrupting interaction
MRFRFGVVVPPAVAGARPELLVVGSRPELGRWEPRGAVRLRPAGTAAGDGALALQEPGLWLGEVELAAEEAAQDGAEPGRVDTFWYKFLKREPGGELSWEGNGPHHDRCCTYNENNLVDGVYCLPIGHWIEATGHTNEMKHTTDFYFNIAGHQAMHYSRILPNIWLGSCPRQVEHVTIKLKHELGITAVMNFQTEWDIVQNSSGCNRYPEPMTPDTMIKLYREEGLAYIWMPTPDMSTEGRVQMLPQAVCLLHALLEKGHIVYVHCNAGVGRSTAAVCGWLQYVMGWNLRKVQYFLMAKRLAVYIDEEALARAQEDFFQKFGKVRSSVCSL [P301L] | disrupting interaction
MRFRFGVVVPPAVAGARPELLVVGSRPELGRWEPRGAVRLRPAGTAAGDGALALQEPGLWLGEVELAAEEAAQDGAEPGRVDTLWYKFLKREPGGELSWEGNGPHHDRCCTYNENNLVDGVYCLPIGHWIEATGHTNEMKHTTDFYFNIAGHQAMHYSRILPNIWLGSCPRQVEHVTIKLKHELGITAVMNFQTEWDIVQNSSGCNRYPEPMTPDTMIKLYREEGLAYIWMPTPDMSTEGRVQMLPQAVCLLHALLEKGHIVYVHCNAGVGRSTAAVCGWLQYVMGWNLRKVQYFLMAKRPAVYIDEEALARAQEDFFQKFGKVRSSVCSL [F84L] | disrupting interaction

Variants of: B2
Conditions: with epm2a_human EPM2A

Variant | effect of a mutation on the interaction
MSCTRMIQVLDPRPLTSSVMPVDVAMRLCLAHSPPVKSFLGPYDEFQRRHFVNKLKPLKSCLNIKHKAKSQNDWKCSHNQAKKRVVFADSKGLSLTAIHVFSDLPEEPAWDLQFDLLDLNDISSALKHHEEKNLILDFPQPSTDYLSFRSHFQKNFVCLENCSLQERTVTGTVKVKNVSFEKKVQIRITFDSWKNYTDVDCVYMKNVYGGTDSDTFSFAIDLPPVIPTEQKIEFCISYHANGQVFWANNAGQNYRIVHVQWKPDGVQTQMAPQDCAFHQTSPKTELESTIFGSPRLASGLFPEWQSWGRMENLASYR [D247A;D250A] | disrupting interaction
